Reference: US20150004174A1

Key:
[1] = molecular target: cynomolgus monkey PCSK9, V5-6xHis tagged (cynomolgus monkey); test: BIAcore SPR, antibody amine-coupled to CM5 chip, PCSK9 as analyte, pH 7.4
[2] = molecular target: cynomolgus monkey PCSK9, V5-6xHis tagged (cynomolgus monkey); test: KinExA solution equilibrium
[3] = molecular target: cynomolgus monkey PCSK9, V5-6xHis tagged (cynomolgus monkey); test: BIAcore solution equilibrium binding assay, free PCSK9 measured on immobilized 21B12

Kd [1] [nM] | Kd [2] [nM] | Kd [3] [nM] | Binder
0.87 | 0.016 | – | 16F12 human IgG4 (antibody, V domains shown) VH: QVHLVESGGGVVQPGRSLRLSCAASGFTFNSFGMHWVRQAPGKGLEWVALIWSDGSDEYYADSVKGRFTISRDNSKNTLYLQMNSLRAEDTAVYYCARAIAALYYYYGMDVWGQGTTVTVSS VL: QSVLTQPPSVSAAPGQKVTISCSGSSSNIGNNFVSWYQQLPGTAPKLLIYDYNKRPSGIPDRFSGSKSGTSATLGITGLQTGDEADYYCGTWDSSLSAYVFGTGTRVTVLQ
0.36 | – | 0.011 | 21B12 human IgG4 (from hybridoma) (antibody, V domains shown) VH: QVQLVQSGAEVKKPGASVKVSCKASGYTLTSYGISWVRQAPGQGLEWMGWVSFYNGNTNYAQKLQGRGTMTTDPSTSTAYMELRSLRSDDTAVYYCARGYGMDVWGQGTTVTVSS VL: QSALTQPASVSGSPGQSITISCTGTSSDVGGYNSVSWYQQHPGKAPKLMIYEVSNRPSGVSNRFSGSKSGNTASLTISGLQAEDEADYYCNSYTSTSMVFGGGTKLTVLQ
